What was measured:
[1] = target: T1, human LILRA2 on CHOK1-human LILRA2 cell line (human, UniProt Q8N149 24-483); test: flow cytometry on CHOK1-human LILRA2 cell line (FIG. 2A)
T1 construct: whole, on cells

[2] = target: T2, human LILRA4 (human, UniProt P59901 24-446); test: ELISA, antibody at 200 nM, OD450; + = 2-fold over ISO
T2 construct: Bought protein; also called hLILRA4
Description: (§1) To further confirm binding affinity, selected clones were assayed in ELISA or FACS in a range of testing concentrations.

[3] = target: T3, human LILRB5 (human, UniProt O75023 24-458); test: as above
T3 construct: Bought protein; also called hLILRB5
T3 sequence (O75023 24-458 limits assumed): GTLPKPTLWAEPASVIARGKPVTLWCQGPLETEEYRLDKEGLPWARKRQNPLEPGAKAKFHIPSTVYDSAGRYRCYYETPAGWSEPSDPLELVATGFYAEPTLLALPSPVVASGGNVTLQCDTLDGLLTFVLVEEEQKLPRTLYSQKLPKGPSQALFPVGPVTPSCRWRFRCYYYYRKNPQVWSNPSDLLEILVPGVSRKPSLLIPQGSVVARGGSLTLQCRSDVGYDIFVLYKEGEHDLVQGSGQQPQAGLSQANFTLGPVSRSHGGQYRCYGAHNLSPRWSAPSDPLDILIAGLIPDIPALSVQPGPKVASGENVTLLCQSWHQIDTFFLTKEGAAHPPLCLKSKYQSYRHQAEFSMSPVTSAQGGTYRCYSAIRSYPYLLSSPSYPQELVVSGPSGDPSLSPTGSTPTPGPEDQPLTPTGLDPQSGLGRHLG
Description: as §1

T2 sequence (P59901 24-446 limits assumed): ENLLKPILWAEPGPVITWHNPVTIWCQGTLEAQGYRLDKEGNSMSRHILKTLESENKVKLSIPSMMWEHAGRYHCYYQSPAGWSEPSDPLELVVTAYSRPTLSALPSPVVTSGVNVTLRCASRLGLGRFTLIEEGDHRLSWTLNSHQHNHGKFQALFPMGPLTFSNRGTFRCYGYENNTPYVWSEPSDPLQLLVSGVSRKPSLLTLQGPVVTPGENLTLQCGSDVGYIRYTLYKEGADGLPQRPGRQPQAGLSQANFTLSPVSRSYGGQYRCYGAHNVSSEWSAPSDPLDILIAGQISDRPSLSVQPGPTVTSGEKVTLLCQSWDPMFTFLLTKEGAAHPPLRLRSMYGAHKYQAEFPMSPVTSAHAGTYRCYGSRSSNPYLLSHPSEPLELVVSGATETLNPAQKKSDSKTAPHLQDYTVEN
T1 sequence (Q8N149 24-483): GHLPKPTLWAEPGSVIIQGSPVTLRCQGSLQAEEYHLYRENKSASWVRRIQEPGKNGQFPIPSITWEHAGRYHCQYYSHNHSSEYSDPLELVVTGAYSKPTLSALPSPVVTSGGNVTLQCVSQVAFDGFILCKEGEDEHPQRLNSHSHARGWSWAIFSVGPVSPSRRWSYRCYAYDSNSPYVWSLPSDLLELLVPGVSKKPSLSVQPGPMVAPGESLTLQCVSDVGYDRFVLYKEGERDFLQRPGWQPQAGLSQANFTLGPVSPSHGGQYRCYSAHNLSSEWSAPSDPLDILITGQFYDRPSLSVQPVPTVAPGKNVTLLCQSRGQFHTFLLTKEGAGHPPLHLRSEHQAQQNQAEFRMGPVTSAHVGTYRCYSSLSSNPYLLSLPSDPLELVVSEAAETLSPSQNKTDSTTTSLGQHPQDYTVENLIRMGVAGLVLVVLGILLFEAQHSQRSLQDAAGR

Row | Binder | binding result [1] | binding result [2] | binding result [3]
1 | hz73D1.v1 (antibody, human IgG4 S228P, kappa, V domains shown) VH: QVQLVQSGAEVKKPGASVKVSCKASGYTFTDYYINWVRQAPGQGLEWMGNVNPNDGGTTYNQKFKGRVTMTTDTSTSTAYMELRSLRSDDTAVYYCARREIYFYGTIYYYAMDYWGQGTLVTVSS VL: DIQLTQSPSFLSASVGDRVTITCRASESVDYYGNSFMYWYQQKPGKAPKLLIYFASNLESGVPSRFSGSGSGTEFTLTISSLQPEDFATYYCQQNNEDPWTFGGGTKVEIKR | no binding | – | –
2 | LK-RB2-16 (antibody, human IgG4 S228P, kappa, V domains shown) VH: QIQLVQSGPELKKPGETVKISCKASGYTFTTYGMGWVKQAPEKGLKWMGWINTNSGAPTYGDDFKGRFAFSLETSASTAYLQINNLKNEDTATYFCAHYGRPWFAYWGQGTLVTVSA VL: DIQMTQSPASLSASVGETVTITCRASENIYSYLAWYHQKQGESPQLLVYNAKTLAEGVPSRFSGSGSGTQFSLKINSLQPEDFGSYYCQHHYNIPLTFGAGTKLELKR | – | binds | binds

Reference: patent US20260234247A1 (published 2026)
